The values below come from paper PMC6804851, “Mechanism of floral scent production in Osmanthus fragrans and the production and regulation of its key floral constituents, β-ionone and linalool”.

Data set [1] has as its target T1, OfERF61 (Osmanthus fragrans, UniProt A0A5P8PES4 1-303). As to the kind of experiment: EMSA; 0, 2, 4, 8 ug ERF61; complex increases with protein; LightShift Chemiluminescent EMSA Kit (Thermo Fisher), manufacturer's instructions; buffer, salt, pH and temperature not stated. The conditions noted are these: protein: recombinant; tags: pET-30a vector tags (not given); label: 3' biotin (sense strand); blunt.

The target of data set [2] is T1, OfERF61. Put plainly: competition; labeled OC1 probe; signal reduced at 20-fold, not detected at 200-fold excess; LightShift Chemiluminescent EMSA Kit (Thermo Fisher), manufacturer's instructions; buffer, salt, pH and temperature not stated. The conditions noted are these: protein: recombinant; tags: pET-30a vector tags (not given); label: none; blunt.

T1 sequence (A0A5P8PES4 entry or part of it): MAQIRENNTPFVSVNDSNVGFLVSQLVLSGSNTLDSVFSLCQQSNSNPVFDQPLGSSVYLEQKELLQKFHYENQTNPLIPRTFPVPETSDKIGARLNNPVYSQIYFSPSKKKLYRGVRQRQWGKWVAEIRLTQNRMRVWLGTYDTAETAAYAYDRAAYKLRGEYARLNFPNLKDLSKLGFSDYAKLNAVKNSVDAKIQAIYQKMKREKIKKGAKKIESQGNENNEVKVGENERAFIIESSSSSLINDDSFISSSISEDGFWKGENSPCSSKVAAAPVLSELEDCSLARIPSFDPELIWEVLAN

B1: OC1 probe (OfCCD4 promoter, CAACA element) (dsDNA)
DNA 1: AAAGAAAAAAGGACAACAACAGTGGATAATTTGA
DNA 2: TCAAATTATCCACTGTTGTTGTCCTTTTTTCTTT
With B1, the binding result with OfERF61 [1] is “binds”.

B2: OC1 unlabeled competitor (dsDNA)
DNA 1: B1 DNA 1
DNA 2: B1 DNA 2
As for B2, the binding result with OfERF61 [2] was “binds”.
